Measurements published in paper PMC10988552.

Biological target: T1, granulocyte colony stimulating factor (G-CSF) (human), P09919
T1 chain: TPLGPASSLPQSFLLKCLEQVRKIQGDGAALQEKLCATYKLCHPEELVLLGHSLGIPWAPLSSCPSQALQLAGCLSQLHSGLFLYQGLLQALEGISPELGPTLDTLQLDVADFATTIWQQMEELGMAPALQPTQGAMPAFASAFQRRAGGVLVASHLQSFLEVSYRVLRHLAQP
Assay: SEC; analytical SEC-HPLC, TSKgel G3000SWXL, mobile phase 0.1 M phosphate pH 2.5, 1 mL/min; 0.3 mg/mL G-CSF in 50 mM citric acid pH 4.25 with or without 1% (w/v) sucrose, mannitol or phenylalanine, before lyophilization; monomer 19.9 min, dimer 18.4 min
Details: remark: other sources report otherwise

percent dimer: 16% | stoichiometry N: 2
B1: granulocyte colony stimulating factor (G-CSF), P09919-2 31-204 (natural protein)
chain: T1 chain
